The numbers were not newly measured in paper PMC3157396, “Molecular Basis for the Recognition of Adenomatous Polyposis Coli by the Discs Large 1 Protein” (PLoS ONE, 2011), which cites them from elsewhere.

For this data set, the system named is PDZ1 and PDZ2 domains of PSD-95. From the text:
The 3D structures of the three PDZ domains of DLG1 have been determined in the free forms [13]–[15]. They share very similar structures, and the ligand binding pockets are also conserved. […] The residues in the β2/β3 loop ...

B1: Kv1.4 potassium channel: Kv1.4 potassium channel (protein, UniProt P22459 1-653, looked up)
Potassium voltage-gated …: MEVAMVSAESSGCNSHMPYGYAAQARARERERLAHSRAAAAAAVAAATAAVEGSGGSGGGSHHHHQSRGACTSHDPQSSRGSRRRRRQRSEKKKAHYRQSSFPHCSDLMPSGSEEKILRELSEEEEDEEEEEEEEEEGRFYYSEDDHGDECSYTDLLPQDEGGGGYSSVRYSDCCERVVINVSGLRFETQMKTLAQFPETLLGDPEKRTQYFDPLRNEYFFDRNRPSFDAILYYYQSGGRLKRPVNVPFDIFTEEVKFYQLGEEALLKFREDEGFVREEEDRALPENEFKKQIWLLFEYPESSSPARGIAIVSVLVILISIVIFCLETLPEFRDDRDLVMALSAGGHGGLLNDTSAPHLENSGHTIFNDPFFIVETVCIVWFSFEFVVRCFACPSQALFFKNIMNIIDIVSILPYFITLGTDLAQQQGGGNGQQQQAMSFAILRIIRLVRVFRIFKLSRHSKGLQILGHTLRASMRELGLLIFFLFIGVILFSSAVYFAEADEPTTHFQSIPDAFWWAVVTMTTVGYGDMKPITVGGKIVGSLCAIAGVLTIALPVPVIVSNFNYFYHRETENEEQTQLTQNAVSCPYLPSNLLKKFRSSTSSSLGDKSEYLEMEEGVKESLCAKEEKCQGKGDDSETDKNNCSNAKAVETDV
Consider B1, for which the “change of binding affinity on deletion of six residues from the β2/β3 loops (in words)” value is reported as “decreases the binding affinity”.
